The source of these data is the supplement of paper PMC9170038.

The subject of this data set is MS2 coat protein. Description: apparent KD of MS2 coat protein; designed switch direction (-1 OFF switch, 1 ON switch): -1; higher = weaker reporter binding. The procedure, abridged:
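Designed RNA switches with common flanks were made on Illumina chips by stalled E. coli RNA polymerase. Titration with SNAP-549-labelled MS2 coat protein doubled from 0.7 or 1.5 nM up to 3 µM. Apparent KD is each design's median over clusters after curve-fitting normalised fluorescence.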

Setting [1] is: Eterna round: R95, input ligand: microRNA oligo, concentration not stated.
The mark [2] stands for this setting: Eterna round: R95, input ligand: FMN 200 uM.
The mark [3] stands for this setting: Eterna round: R95, input ligand: none.
[4] abbreviates: input ligand: microRNA oligo, concentration not stated.

For the sequence “GGUUCGAAAGUGAGGAUAUGCUGGUCCUUGGAUCAGCAGAAGGCACAUGAGGAUCACCCAUGUGGUAACGGACC [Mat - Exclusion 4 - Eli Mod - D37] (Eterna round: R97, puzzle: Brourd's mod of Exclusion 4)”, the “apparent KD of MS2 coat protein” value came to 122 nM (input ligand: FMN 200 uM) and 25.2 nM (input ligand: none).

Take “GGUUGACAUGAGGAUCACCCAUGUGAGGAUAUCGGCUGGUACGUGUUGGCUGGCAUCUCGAGAAGGCACAUAGG [Exclusion 1 V59] (puzzle: Exclusion 1)”: under setting [1], the “apparent KD of MS2 coat protein” value is 155 nM.

With “GGUUGACAUGAGGAUCACCCAUGUGAGGAUAUGCGAGAGAAAAAAGUGAGGAAGAAUAGCAGAAGGCGCUGUCG [salish99-ex1_r3_011] (puzzle: Exclusion 1)”, the “apparent KD of MS2 coat protein” value under setting [2] was 44.6 nM, the “apparent KD of MS2 coat protein” value under setting [1] was determined as 41.7 nM and the “apparent KD of MS2 coat protein” value under setting [3] turned out to be 21.1 nM.

Consider “GGUUGGCGAGGAUAUACAUGAGGAUCACCCAUGUGAAAGAAAAAAGUGAGGAAGAAAAGUAGAAGGCGCUGACG [salish99_ex3_r3_016] (puzzle: Exclusion 3)”, for which the “apparent KD of MS2 coat protein” value under setting [2] came to 5.86 nM, the “apparent KD of MS2 coat protein” value under setting [1] worked out at 8.93 nM and the “apparent KD of MS2 coat protein” value under setting [3] is 14.4 nM.

For the sequence “GGUUGGCGAGGAUAUACAUGAGGAUCACCCAUGUGAGAAAGAAAAGUGAGGAAGAAAAGUAGAAGGCGCUGACG [Mat - Exclusion 3 - Mod of Salish D2] (puzzle: Exclusion 3)”, the “apparent KD of MS2 coat protein” value by setting is: under setting [2], 583 nM; under setting [1], 53.4 nM; under setting [3], 99.8 nM.

Regarding “GGUUGGCGAGGAUAUACAUGAGGAUCACCCAUGUGAGAGAAAAAAGUCAGGAAGAAAAGUAGAAGGCGCUGACG [salish99_ex3_r3_028] (puzzle: Exclusion 3)”, the “apparent KD of MS2 coat protein” value under setting [2] amounted to 32.4 nM, the “apparent KD of MS2 coat protein” value under setting [1] came out at 21.7 nM and the “apparent KD of MS2 coat protein” value under setting [3] turned out to be 22.5 nM.

Turning to “GGUUGGCGAGGAUAUACAUGAGGAUCACCCAUGUGAGAGAAAAAAGUGAGGACGAAAAGUAGAAGGCGCUGACG [salish99_ex3_r3_032] (puzzle: Exclusion 3)”, the “apparent KD of MS2 coat protein” value is, setting by setting: under setting [2], 223 nM; under setting [1], 69.1 nM; under setting [3], 61.6 nM.

For “GGUUGGCGAGGAUAUACAUGAGGAUCACCCAUGUGAGAGAAUAAAGUGAGGAAGAAAAGUAGAAGGCGCUGACG [salish99_ex3_r3_013] (puzzle: Exclusion 3)”, the “apparent KD of MS2 coat protein” value is, setting by setting: under setting [2], 1030 nM; under setting [1], 42.1 nM; under setting [3], 47 nM.

On to “GGUUUGCGGCAGGAUAUCCAUCCGCGGUAUGGUGGAGAAGGGCUGACAUGAGGAUCACCCAUGUGCGUCCUAGG [salish99_ex6_r4_018] (Eterna round: R97, puzzle: Exclusion 6)”, for which the “apparent KD of MS2 coat protein” value was 24.6 nM (input ligand: FMN 200 uM) and 18.8 nM (input ligand: none).

Turning to “GGUUUGGGAGGAUAUGGUUUUAAUAACAUGAGGAUCACCCAUGUAAAUAGAUCCUCAAGGCCAGAAGGCUCGGGCC [-24.9, -24.02 kcal, A 29%] (Eterna round: R97, puzzle: Exclusion 5)”, the “apparent KD of MS2 coat protein” value by setting is: (input ligand: FMN 200 uM) 508 nM; (input ligand: none) 143 nM.

“GUAAAACAUGAGGAUCACCCAUGUCAGGAUAUACGAUUCCACCCUAACUGCGUGGAACGUAGAAGGGACAUAGG [Exclusion 1 (MOD6.1 Esqu)] (Eterna round: R97, puzzle: Exclusion 1)”: the “apparent KD of MS2 coat protein” value (input ligand: FMN 200 uM) turned out to be 57.9 nM and the “apparent KD of MS2 coat protein” value (input ligand: none) was 221 nM.

Turning to “GUAAAACAUGUAGGAUAUGCGUGGCAAAGCUAUGCAGAAGGACAUGAGGAUCACCCAUGUUAAAGCGUCUGCGUACAGAUGCAA [Mat - Exclusion NG 1 - Mod of JL - D95] (Eterna round: R96, puzzle: Exclusion NG 1)”, the “apparent KD of MS2 coat protein” value by setting is: (input ligand: FMN 200 uM) 143 nM; under setting [4], 30.5 nM; (input ligand: none) 30.7 nM.

For “GUAAAGUGAGGAUAUGGUAAAGUAAGUAUUUAGUAAGUAAUCCAGAAGGCACAUGAGGAUCACCCAUGUAAAUG [Mat - Exclusion 4 - D98] (puzzle: Exclusion 4)”, the “apparent KD of MS2 coat protein” value under setting [1] was determined as 29.2 nM.

Consider “GUAAAGUGAGGAUAUGGUAAAGUAAUUAUUUAGUAAGUAAUCCAGAAGGCACAUGAGGAUCACCCAUGUAAAUG [Mat - Exclusion 4 - D97] (puzzle: Exclusion 4)”, for which the “apparent KD of MS2 coat protein” value under setting [1] came to 25.7 nM.

As for “GUAAAUCAUGUAGGAUAUGCAUAGCAAAGCUAUGCAGAAGGACAUGAGGAUCACCCAUGUCAUUCCGUCUGGAGACAGACGGAA [Mat - Exclusion NG 1 - Mod of JL - D59] (Eterna round: R96, puzzle: Exclusion NG 1)”, the “apparent KD of MS2 coat protein” value was found to be 121 nM (input ligand: FMN 200 uM), 22 nM under setting [4] and 32.2 nM (input ligand: none).

In the case of “GUAAAUCAUGUAGGAUAUGCGUGGCGAAGCUAUGCAGAAGGACAUGAGGAUCACCCAUGUGCUUCCGUCUGAGAACAGACGGAA [Mat - Exclusion NG 1 - Mod of JL - D27] (Eterna round: R96, puzzle: Exclusion NG 1)”, the “apparent KD of MS2 coat protein” value (input ligand: FMN 200 uM) came out at 105 nM, the “apparent KD of MS2 coat protein” value under setting [4] worked out at 187 nM and the “apparent KD of MS2 coat protein” value (input ligand: none) is 341 nM.

As to “GUAAAUCAUGUAGGAUAUGCGUGGCGAAGCUAUGCAGAAGGACAUGAGGAUCACCCAUGUGCUUCCGUCUGAGAACAGACGGAG [Mat - Exclusion NG 1 - Mod of JL - D28] (Eterna round: R96, puzzle: Exclusion NG 1)”, the “apparent KD of MS2 coat protein” value by setting is: (input ligand: FMN 200 uM) 222 nM; under setting [4], 116 nM; (input ligand: none) 244 nM.

As to “GUAACAUGCUGGUGAUCAUACAUGAGGAUCACCCAUGUAACAAGCUUUUUGCUCGUCUUAUAAGAUCACCAGCAUGU [Stov1/9-A3] (Eterna round: R97, puzzle: Sensor, turn-off variant 1)”, the “apparent KD of MS2 coat protein” value (input ligand: FMN 200 uM) amounted to 12.2 nM and the “apparent KD of MS2 coat protein” value (input ligand: none) turned out to be 13.6 nM.

“GUAACAUGCUGGUGAUCAUACAUGAGGAUCACCCAUGUAACAAGCUUUUUGCUCGUCUUAUAAGAUUACUAGUAUGU [Stov1/10-A3] (Eterna round: R97, puzzle: Sensor, turn-off variant 1)”: the “apparent KD of MS2 coat protein” value is 22 nM (input ligand: FMN 200 uM) and 24.3 nM (input ligand: none).

Take “GUAACAUGCUGGUGAUCAUACAUGAGGAUCACCCAUGUAACAAGCUUUUUGCUCGUCUUAUAAUUUAAGAUCACCAG [Stov1/7-A3] (Eterna round: R97, puzzle: Sensor, turn-off variant 1)”: the “apparent KD of MS2 coat protein” value turned out to be 16.3 nM (input ligand: FMN 200 uM) and 16.2 nM (input ligand: none).

On to “GUAAUGAUUGUGAGGAUAUUUCAUAGAUAGAUAUUAGAGAAGGUACAUGAGGAUCACCCAUGUGUGAUUAUACA [Brourd's EX4 #72] (Eterna round: R97, puzzle: Brourd's mod of Exclusion 4)”, for which the “apparent KD of MS2 coat protein” value by setting is: (input ligand: FMN 200 uM) 97.3 nM; (input ligand: none) 114 nM.

For the sequence “GUAAUGCUAGGAUAUCGACAAAUUUACAUGAGGAUCACCCAUGUGAACCCUGUGUGGUAACGAGAAGGAGUCAGCU [Eternabot (L2) Solution 54] (Eterna round: R97, puzzle: Exclusion 5)”, the “apparent KD of MS2 coat protein” value reads like this: (input ligand: FMN 200 uM) 39.1 nM; (input ligand: none) 53.5 nM.

For the sequence “GUAAUGCUGCGAGGAUAUACAUGAGGAUCACCCAUGUGGAUGUCUGAGGCUUUGCCUCAGACGAUGUAGAAGGCGCAGUAAAAU [Mat - Exclusion NG 2 - Mod of JL - D53] (Eterna round: R96, puzzle: Exclusion NG 2)”, the “apparent KD of MS2 coat protein” value runs as follows: (input ligand: FMN 200 uM) 87.5 nM; under setting [4], 11.5 nM; (input ligand: none) 28.3 nM.

For “GUAAUUAAUGUAGGAUAUGCAAGGCGAACCUAAGCAGAAGGAACAUGAGGAUCACCCAUGUAUGCGGUCUGCGUACAGAUCGCU [salish99_ExNG1_r4_004] (Eterna round: R96, puzzle: Exclusion NG 1)”, the “apparent KD of MS2 coat protein” value (input ligand: FMN 200 uM) worked out at 15.1 nM, the “apparent KD of MS2 coat protein” value under setting [4] was determined as 13.3 nM and the “apparent KD of MS2 coat protein” value (input ligand: none) was 19.7 nM.

For “GUAAUUAAUGUAGGAUAUGCAAGGCGAACCUAAGCAGAAGGACAUGUGGAUCACCCAUGACAUGAGGAUCACCCAUGUAUCGCU [salish99_ExNG1_r4_005] (Eterna round: R96, puzzle: Exclusion NG 1)”, the “apparent KD of MS2 coat protein” value is, setting by setting: (input ligand: FMN 200 uM) 109 nM; under setting [4], 122 nM; (input ligand: none) 212 nM.

For the sequence “GUAAUUAUAUAGGAUAUCGAAUUUAUUAUUUAACGAGAAGGAUGAACAUGAGGAUCACCCAUGUGGUAUCAUGG [JL-ex6-3.04] (puzzle: Exclusion 6)”, the “apparent KD of MS2 coat protein” value by setting is: under setting [2], 145 nM; under setting [1], 139 nM; under setting [3], 165 nM.

For the sequence “GUACACGGCUAGGAUAUCAUUCCUUGCGACCCUUGAGAAGGAGCCACAUGAGGAUCACCCAUGUCAUAUGCAGA [Eternabot (Original) Solution 38] (Eterna round: R97, puzzle: Exclusion 6)”, the “apparent KD of MS2 coat protein” value was found to be 37.5 nM (input ligand: FMN 200 uM) and 33.2 nM (input ligand: none).

For “GUACAUAUAGGAUAUACAUGAGGAUCACCCAUGUAAAUCGUUAGUUGGGAUUCUAAAAGUAGAAGGGUGGUGCG [Eternabot (L2) Solution 30] (Eterna round: R97, puzzle: Exclusion 3)”, the “apparent KD of MS2 coat protein” value reads like this: (input ligand: FMN 200 uM) 27.6 nM; (input ligand: none) 27.4 nM.

Regarding “GUACCAGAUGUCAGGAUAUGCUUUGAGAGUUGCGAGUAGAAGGGACAUGAGGAUCACCCAUGUACCUACAGGAA [BmEX4 B.30] (Eterna round: R97, puzzle: Brourd's mod of Exclusion 4)”, the “apparent KD of MS2 coat protein” value stood at 14.7 nM (input ligand: FMN 200 uM) and 14 nM (input ligand: none).
